B1: human foamy virus (HFV) Bet protein, P89873 1-482 (protein)
chain: MDSYEKEESVASTSGIQDLQTLSELVGPENAGEGELTIAEEPEENPRRPRRYTKREVKCVSYHAYKEIEDKHPQHIKLQDWIPTPEEMIAQKVQNQDLGTILSFDVTCLKSITSLGRNDPGDDPSIMSHVLPVVTPWPMSQDHYAPTLFGILDRYYQGYLKSPATYQTWKFTCQVDPSGKRFMETQFWVPPLGQVNIQFYKNYQILTCCQAVDPFANIFHGTDEEMFDIDSGPDVWCSPSLCFKVIYEGAMGQKQEQKTWLCRLGHGHRMGACDYRKVDLYAMRQGKENPYGDRGDAALQYAYQVKRGCKAGCLASPVLNYKALQFHRTIMADFTNPRIGEGHLAHGYQAAMEAYGPQRGSNEERVWWNVTRNQGKQGGEYYREGGEEPHYPNTPAPHRRTWDERHKVLKLSSFATPSDIQRWTTKALPYGWKVVTESGNDYTSRRKIRTLTEMTQDEIRKRWESGYCDPFIDSGSDSDGPF

Tests used:
Experiment in all cases: cell-based or functional assay
[1] = target: C-terminal HA-tagged feline APOBEC3 (feline)
Sequence of C-terminal HA-tagged feline APOBEC3 (feline) (Q4VDN5 whole entry): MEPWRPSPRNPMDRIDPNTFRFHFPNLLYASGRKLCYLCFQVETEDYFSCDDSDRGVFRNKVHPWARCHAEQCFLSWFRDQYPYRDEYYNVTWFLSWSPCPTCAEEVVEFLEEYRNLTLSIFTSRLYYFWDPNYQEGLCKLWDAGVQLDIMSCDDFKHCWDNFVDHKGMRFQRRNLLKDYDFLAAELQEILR

[2] = target: feline APOBEC3 (feline)
[3] = target: different primate APOBEC3 proteins (e.g. from chimpanzee, African green monkey, human)

| Molecule | G→A exchanges per 100 nucleotides in FFV genomes with fe3 coexpressed (G→A exchanges per 100 nucleotides) [1] | reduction of FFV titer (FeFAB reporter cells) on cotransfection of pfe3 [2] [fold] | Bet-mediated rescue of marker gene transduction in the presence of different APOBEC3 molecules [3] [fold] |
| --- | --- | --- | --- |
| FFV Bet truncated after amino acid 116 (mutant pFeFV-BBtr) | 1.05 |  |  |
| feline foamy virus (FFV) Bet protein (from UniProt Q8NFT8) | 0.05 | < 10 |  |
| B1 |  |  | < 100 |
